According to paper PMC12635110:

Molecular target: MCPH1-BRCT-eCR (tandem BRCT 2-3 of MCPH1) tandem BRCT domain (BRCT2-3)
Assay: FRAP of eGFP in live cells
Conditions: reference: DMSO, outside spontaneous damage foci; sites S139

Substance: H2AX (from UniProt P16104) ETO ~1 h, within a damage focus
- other: FRAP recovery half-life: same; reference 1.07 ± 0.76
